The values below come from article doi:10.1101/2021.12.04.471219 (bioRxiv, 2021).

By Kd is commonly meant the free concentration of one partner at which half of the binding sites on the other are occupied at equilibrium, for simple one-to-one binding. For orientation: stoichiometry N means a count of units in the complex or per binding partner.

To fix the notation:
B1: ZO-1 PDZ2 domain (residues 184-264) (domain or fragment)
chain: PTKVTLVKSRKNEEYGLRLASHIFVKEISQDSLAARDGNIQEGDVVLKINGTVTENMSLTDAKTLIERSKGKLKMVVQRDE

Data set [1] deals with MLLT4 PDZ domain (residues 961-1056) (human) (UniProt P55196). Kind of data set: MST.
Data set [2] has as its target B1. Kind of data set: MST.
In data set [3] the target is T1, LNX2 PDZ2 domain (residues 334-426) (human, UniProt Q8N448 334-426).
T1 sequence: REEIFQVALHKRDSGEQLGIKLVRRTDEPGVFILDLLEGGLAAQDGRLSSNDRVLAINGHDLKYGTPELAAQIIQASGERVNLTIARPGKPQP
Kind of data set: MST.

In data set [4] the target is PARD3 PDZ3 domain (residues 582-685) (human, UniProt Q8TEW0 582-685). The experiment in a line: MST.
Sequence of PARD3 PDZ3 domain (residues 582-685) (Q8TEW0 582-685): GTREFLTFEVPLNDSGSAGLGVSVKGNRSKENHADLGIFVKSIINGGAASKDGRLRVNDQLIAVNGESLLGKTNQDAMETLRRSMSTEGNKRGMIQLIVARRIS
Data set [5] has as its target T2, MPP5 PDZ domain (residues 238-336) (human, UniProt Q8N3R9 238-336).
T2 sequence: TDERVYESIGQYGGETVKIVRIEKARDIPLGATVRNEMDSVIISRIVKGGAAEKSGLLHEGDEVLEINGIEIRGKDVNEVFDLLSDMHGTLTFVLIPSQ
The experiment in a line: MST.

The data set “AUC” concerns the molecule itself. Kind of data set: AUC.

“And” between values parts separate entries of the source, which are not always exact repeats. Equal entries are not always repeated.

The molecule “C-terminal SARS-CoV-2-E PBM peptide (12-mer, original strain)” gave a Kd in data set [1] of 569 µM.

On to NLNSSRVPDLLV [C-terminal SARS-CoV-2-E PBM peptide (12-mer, original strain)], for which the dissociation constant (Kd) in data set [2] came to 15 µM; in data set [3], 289 µM; in data set [4], 341 µM; in data set [5] it was 30 µM.

With B1, the “stoichiometry N” value in “AUC” is 2 and ~4.
